Test results reported in the supplement of paper PMC9170038.

Key:
MS2 coat protein [1] = assay: apparent KD of MS2 coat protein, switch ON state; designed switch direction (-1 OFF switch, 1 ON switch): 1; higher = weaker reporter binding; details: FMN input: 0 or 200 uM; Eterna round: R93 (includes R88 designs)
Summary of the method: (§1)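 Binding of SNAP-549-labelled MS2 coat protein was measured on designed RNA switches transcribed on-chip from Illumina sequencing clusters. The protein rose in twofold steps from 0.7 or 1.5 nM to 3 µM, with 0.8–1.5 h per step early on and 10–20 min per step later, in 100 mM Tris-HCl pH 7.5, 80 mM KCl, 4 mM MgCl2, without or with constant ligand. Each design's apparent KD is the median of fits to its normalised cluster binding curves.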

MS2 coat protein [2] = assay: apparent KD of MS2 coat protein, switch OFF state (with FMN for OFF switches, without FMN for ON switches); designed switch direction (-1 OFF switch, 1 ON switch): 1; higher = weaker reporter binding; details: FMN input: 0 or 200 uM; Eterna round: R93 (includes R88 designs)
Summary of the method: as §1

Sequence | apparent KD of MS2 coat protein (MS2 coat protein [1]) [nM] | apparent KD of MS2 coat protein (MS2 coat protein [2]) [nM]
AAAAAACAUGAGGAUCACCCAUGUCGAAAGACAUGAGGAUAUGUACAGACUUCGGUCUGUACAGAAGGCAUGAAAA [SS1 - 1012] | 114 | 79.3
AAAAAACAUGAGGAUCACCCAUGUCUUCGGACGUGAGGAUAUGUACAGACUUCGGUCUGUACAGAAGGCAUGUAAA [SS1 - 1052] | 286 | 186
AAAAAAGAUCUAGAGGAUAUCCGAGUGGUAACAUGAGGAUCACCCAUGUGAAGAAAGGAACAUGAGGAGAAGGCUAGAUCAAAAA [JL Nando Mod 1] | 7.87 | 10.7
AAAAAAUAAAAAAAGGAUAUAAUGCUACAGACAUGAGGAUCACCCAUGUAGGUAGCAAAAAUAAAAAAGAAGGAAAAAUAAAAAA [SS2: MS2 31] | 11.4 | 13.1
AAAAACGUGGCGUAGGAUAUACUAAUAUUCACAUGAGGAUCACCCAUGUUCAUAUAUAUGAACGAGUAGAAGGACGACGAAAAAA [Mat - Same state - Malcolm Mod - D106] | 29.5 | 107
AAAACACAUGAGGAUCACCCAUGUAGAAAUACGGGAGGAUAUGCGAAAACGAAAGACAAAGCAGAAGGCCUAAAAG [saturn 6] | 12.3 | 35
AAAACACAUGAGGAUCACCCAUGUGCAAAAUUCGCAGGAUAUUCCUCAAUUAAAUGAAAGGAAGAAGGGUGAUAAA [Nob's Hobby 32 - Jieux - Same State 1] | 17.8 | 50.2
AAAAGACAUGAGGAUCACCCAUGUAAAAACAUAGGAGGAUAUGUCUUGAAAAAAGACUUGACAGAAGGCCUUUGUC [SS1 - 52] | 39.5 | 75.2
AAAAGACAUGAGGAUCACCCAUGUCAAAAGACAUGAGGAUAUGUACAGACUUCGGUCUGUACAGAAGGCAUAAAAA [SS1 - 1060] | 18.6 | 32.5
AAAAGACAUGAGGAUCACCCAUGUCCUCGGACAUGAGGAUAUGUACAGACUUCGGUCUGUACAGAAGGCAUAAAAA [SS1 - 1063] | 71.2 | 349
AAAAGACAUGAGGAUCACCCAUGUGAAAACGUAGGAGGAUAUGUCUGGAAACCAGACUGGACAGAAGGCCUGUGUC [SS1 - 32] | 26.7 | 33.1
AAAAUAAAAUAAAAGGAUAUAAAAUAAAAAACAUGAGGAUCACCCAUGUAAAAACAUGGGAAAAAAAAGAAGGAAAAAUAAAAAA [SS2: 71 No MS2] | 603 | 1280
AAAAUACAUGAGGAUCACCCAUGUGAAAAUAUGGGAGGAUAUACCGAAAAAAAAAAAAAGGUAGAAGGCCCAAAAA [SS! 1 MT 5] | 17.1 | 69.2
AAACCACAUGAGGAUCACCCAUGUAAAAAUAUGGGAGGAUAUCGGAAUAAAAUAAAGAAACGAGAAGGCCUAAAAG [59%, Flamingo, 4] | 69.3 | 292
AAACCACAUGAGGAUCACCCAUGUCCAAAAAAACAAGGAUAUAUAAAAAAAAAAAAAAAAAUAGAAGGUGUAAAAA [<insert title here>] | 75.5 | 113
AAACUGGAGGACAAGGAUAUGUGCUCUACGACAUGAGGAUCACCCAUGUGAGACGUAGUAGUGAAACAGAAGGUGUCCUAUUGUA [Tiarri] | 11 | 20.4
AAAGAAAAACUAGAGGAUAUCCGAAUGGUAACAUGAGGAUCACCCAUGUGAAGAAAGGAACAUGAGGAGAAGGCUAGAAGAAAAA [JL Nando mod 10] | 18.8 | 23.4
AAAGAAAAACUAGAGGAUAUCCGAGUGGUAACAUGAGGAUCACCCAUGUGACGAAAGGAACAUGAGGAGAAGGCUAGAAGAAAAA [JL Nando mod 9] | 46.3 | 315
AAAGAAAAACUAGAGGAUAUCUGAGUGGUAACAUGAGGAUCACCCAUGUGAAGAAAGGAGCAUGAGGAGAAGGCUAGAAGAAAAA [JL Nando mod 22] | 11.7 | 59

Sequence | apparent KD of MS2 coat protein (MS2 coat protein [1]) [nM] | apparent KD of MS2 coat protein (MS2 coat protein [2]) [nM]
AAAGACGUGCAUCAGGAUAUGUUCCGAGACACAUGAGGAUCACCCAUGUGGACGAAGUCUCGGGCACAGAAGGGAUCACUCAUAA [Latibe] | 15.4 | 21.4
AAAUAAAGGACUAAGGAUAUAUCACAUGAAACAUGAGGAUCACCCAUGUAAUAAUACAAAGGGUGAUAGAAGGUAGUCCACAAACA [Pariah 5 (MS2 Riboswitches - Same State 2)] | 14.9 | 37.1
AAAUAAAUAAAAAAGGAUAUAAAAAAGUACACAUGAGGAUCACCCAUGUGUACACAUGGGUGAUCCUAGAAGGAAAAAUAAAAAA [SS2: 91 No MS2] | 117 | 73.3
AAAUAAAUGACUAAGGAUAUAUCAUAAGAAACAUGAGGAUCACCCAUGUAAUAAUAAAAAGGGUGAUAGAAGGUAGUCAACAAAC [74%, More Paria 4] | 19.8 | 114
AAAUAAAUGACUAAGGAUAUCUCAGAGAAAACAUGAGGAUCACCCAUGUAAUAAUAACAUGUGUGAGAGAAGGUAGUCAACAAAC [Same State 2.4 (Pariah 4 -changed stack on 9nt hairpin)] | 16.1 | 70.1
AAAUAAAUGACUCAGGAUAUAUCAGAGAAAACAUGAGGAUCACCCAUGUAAUAAUAACAUGUGUGGUAGAAGGGAGUCAAUAAAU [LROPPY Same State 2 - v03_deltaG=2.1] | 13.5 | 49.3
AAAUAAAUGACUCAGGAUAUAUCAUAGAAAACAUGAGGAUCACCCAUGUAAUAAUAACAUGUUUGGUAGAAGGGAGUCAAUAAAU [LROPPY Same State 2 - v04_deltaG=1.25] | 31.1 | 18.6
AAAUAAAUGACUCAGGAUAUAUCAUAGGGUACAUGAGGAUCACCCAUGUUUUAAUAACAUGUUUGGUAGAAGGGAGUCAAUAAAU [LROPPY Same State 2 - v07_deltaG=1.69] | 85.1 | 133
AAAUAAAUGACUGAGGAUAUAUCGAUGAGUACAUGAGGAUCACCCAUGUGUUAAUAAAAAGGGUGGUAGAAGGUAGUCAACAAAC [Mod 15 of Pariah 4 by Hyphema in Round 1] | 112 | 51.2
AACAAUCUAUCUGAGGAUAUCAUGACAAAGACAUGAGGAUCACCCAUGUACCAGGAAACUGGUUAUGAGAAGGCAGAUAGAUUGA [SS2: 1117] | 11.5 | 18.8
AACAGACAUGAGGAUCACCCAUGUAGAAUUAUGGGAGGAUAUACAAAGACGAGAGUCAGAGUAGAAGGCCUAGGAA [salish99-ss1-165] | 22 | 89.7
AACAUACAUGAGGAUCACCCAUGUUCCGGCAGGACAGGAUAUACAUCGAAAGUGUUAUAAGUAGAAGGGUCAUAAA [JR_SS001_Sub012] | 56.7 | 66.5
AACCAACAUGAGGAUCACCCAUGUCAACCCAAGCGAGGAUAUCCGAGAAUAACAAUGGGAGGAGAAGGCGCGACCU [ss1] | 38.1 | 39
AACUAACAUGAGGAUCACCCAUGUAAUCAAACAUGAGGAUAUAUAACACAUCAUCAACAGAUAGAAGGCAUAAAUA [JR_SS001_Sub1203] | 80.4 | 62.7
AAGAAACAUGAGGAUCACCCAUGUAAGAUUAUGGGAGGAUAUGCGAAAAGAAACAAAGAAGCAGAAGGCCUAAGAA [75%, Ex5 sub 1, 4] | 15.7 | 77.3
AAGAAACAUGAGGAUCACCCAUGUAGAAACAUGGGAGGAUAUACAAAGACGAAAGUCAAAGUAGAAGGCCUAAAAA [Mat - Same State 1 - Mod - D165] | 88.6 | 141
AAGUCACAUGAGGAUCACCCAUGUCGUAAACGAUGAGGAUAUAGGAAAAAAAAAAAAAAACUAGAAGGUAUAACAA [SameState1-01] | 35 | 38.5
AAUAAACAUGAGGAUCACCCAUGUAGAAAUAUGGGAGGAUAUACAAAGACGAAAGUCAAAGUAGAAGGCCUAAUAA [Mat - Same State 1 - Mod - D153] | 18 | 58.5
AAUAAUUAUAUGGAGGAUAUCCGUAAUAAGACAUGAGGAUCACCCAUGUAAUAAGGUUAAAUAAAGGAGAAGGCCAAGGGUGAAA [JR_SS002_Sub004] | 129 | 344
